Read-outs that look alike come from different tables or passages of the source. Ends that are not written are not given here.
B13: LC3C (recombinant, BLI) (natural protein)
chain: MPPPQKIPSVRPFKQRKSLAIRQEEVAGIRAKFPNKIPVVVERYPRETFLPPLDKTKFLVPQELTMTQFLSIIRSRMVLRATEAFYLLVNNKSLVSMSATMAEIYRDYKDEDGFVYMTYASQETFG

How the values were obtained:
Assay in all cases: BLI
[1] = biological target: GABARAP (recombinant, BLI) (human, UniProt O95166 1-117)
LC3C (recombinant, BLI) [2] = biological target: B13
LC3A (recombinant, BLI) [3] = biological target: T1, LC3A (recombinant, BLI) (human, UniProt Q9H492 1-121)
-L1 (recombinant, BLI) = -L1 (recombinant, BLI) (human, UniProt Q9H0R8 1-117)
[4] = biological target: T2, GABARAP-L2 (recombinant, BLI) (human, UniProt P60520 1-117)
LC3B (recombinant, BLI) [5] = biological target: T3, LC3B (recombinant, BLI) (human, UniProt Q9GZQ8 1-120)
LC3C (recombinant, BLI) [6] = biological target: B13
[7] = biological target: GABARAP K24Q/Y25H/Q59E/F60L (recombinant, BLI) (human, UniProt O95166 1-117, K24Q | Y25H | Q59E | F60L)
[8] = biological target: LC3B Q26K/H27Y/E62Q (recombinant, BLI) (human, UniProt Q9GZQ8 1-120, Q26K | H27Y | E62Q)
[9] = biological target: LC3B E62Q (recombinant, BLI) (human, UniProt Q9GZQ8 1-120, E62Q)
LC3B (recombinant, BLI) [10] = biological target: T3, LC3B (recombinant, BLI); remark: listed apart in the source
[11] = biological target: T2, GABARAP-L2 (recombinant, BLI); remark: listed apart in the source
[12] = biological target: GABARAP R28K (recombinant, BLI) (human, UniProt O95166 1-117, R28K)
[13] = biological target: GABARAP F62K (recombinant, BLI) (human, UniProt O95166 1-117, F62K)
[14] = biological target: GABARAP L63I (recombinant, BLI) (human, UniProt O95166 1-117, L63I)
[15] = biological target: GABARAP K24Q/Y25H/R28K (recombinant, BLI) (human, UniProt O95166 1-117, K24Q | Y25H | R28K)
[16] = biological target: GABARAP L55V (recombinant, BLI) (human, UniProt O95166 1-117, L55V)
[17] = biological target: GABARAP Y25H (recombinant, BLI) (human, UniProt O95166 1-117, Y25H)
[18] = biological target: GABARAP Q59E (recombinant, BLI) (human, UniProt O95166 1-117, Q59E)
[19] = biological target: LC3B Q26K/H27Y/K30R (recombinant, BLI) (human, UniProt Q9GZQ8 1-120, Q26K | H27Y | K30R)
[20] = biological target: GABARAP K24Q (recombinant, BLI) (human, UniProt O95166 1-117, K24Q)
LC3A (recombinant, BLI) [21] = biological target: T1, LC3A (recombinant, BLI); remark: listed apart in the source
[22] = biological target: PCM1 LIR peptide mutated at P1962 (X7) (BLI) (UniProt Q15154, biotin (position not given))

T2 sequence (P60520 whole entry): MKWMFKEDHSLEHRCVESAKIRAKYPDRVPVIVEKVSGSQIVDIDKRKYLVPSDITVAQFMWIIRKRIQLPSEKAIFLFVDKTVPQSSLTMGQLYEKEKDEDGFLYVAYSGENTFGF
Sequence of -L1 (recombinant, BLI) (Q9H0R8 whole entry): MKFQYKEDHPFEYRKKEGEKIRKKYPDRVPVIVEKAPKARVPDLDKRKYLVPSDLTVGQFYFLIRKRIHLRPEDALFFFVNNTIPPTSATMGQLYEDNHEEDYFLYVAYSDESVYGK

B1: PCM1 V1956D LIR peptide (peptide)
chain: NISQKSDEEDFDKVEDLPLKLTIY
modifications: also: biotin, position not given here
B1 was tested, and the Kd [1] was 7.7 µM.

B2: PCM1 K1957I LIR peptide (BLI) (peptide)
chain: NISQKSDEEDFVIVEDLPLKLTIY
modifications: also: biotin, position not given here
B2 was tested, and the Kd [1] was 0.17 µM, the Kd (LC3C (recombinant, BLI) [2]) was 0.38 µM and the Kd (LC3A (recombinant, BLI) [3]) was 3.9 µM. It also gave a Kd (-L1 (recombinant, BLI)) of 0.13 µM and a Kd [4] of 1.19 µM.

B3: FYCO1 WT LIR peptide (peptide)
chain: TDYRPPDDAVFDIITDEELCQIQE
modifications: 24-mer limits inferred: 10 residues on each side of the core FDII (1280-1283), as in the arrays; exact peptide is in Supplementary Table 2. N- or C-terminal biotin if used in BLI, cellulose-bound if in the array
B3 showed a Kd [1] of 1.7 µM, a Kd (LC3C (recombinant, BLI) [2]) of 3 µM and a Kd (LC3B (recombinant, BLI) [5]) of 1.1 µM. The Kd (LC3A (recombinant, BLI) [3]) was 0.78 µM and the Kd [4] was 17.4 µM.

B4: PCM1 V1958I LIR peptide (peptide)
chain: NISQKSDEEDFVKIEDLPLKLTIY
modifications: also: biotin, position not given here
With B4 the Kd [1] was 1.5 µM, the Kd (LC3C (recombinant, BLI) [2]) was 6.9 µM and the Kd [4] was 7.6 µM.

B5: p62 LIR peptide (biotinylated, BLI) (peptide)
chain: SDNCSGGDDDWTHLSSKEVDPSTG
modifications: also: biotin, position not given here
In the case of B5, the Kd (LC3C (recombinant, BLI) [6]) is reported as 2.7 µM.

B6: FYCO1 WT LIR peptide (peptide)
chain: TDYRPPDDAVFDIITDEELCQIQE
B6 showed a Kd (-L1 (recombinant, BLI)) of 0.9 µM.

B7: ATG13 LIR peptide (biotinylated, BLI) (peptide)
chain: GGSSGNTHDDFVMIDFKPAFSKDD
modifications: also: biotin, position not given here
For B7, the Kd [7] was 3.3 µM, the Kd [8] was 3.1 µM and the Kd [9] was 4.5 µM. It also gave a Kd (LC3C (recombinant, BLI) [6]) of 0.48 µM, a Kd (LC3B (recombinant, BLI) [10]) of 9.6 µM and a Kd [11] of 3.1 µM.

B8: PCM1 E1959T LIR peptide (BLI) (peptide)
chain: NISQKSDEEDFVKVTDLPLKLTIY
modifications: also: biotin, position not given here
For B8, the Kd [1] was 3.1 µM, the Kd (-L1 (recombinant, BLI)) was 2.9 µM and the Kd [4] was 19 µM.

B9: PCM1 LIR peptide (biotinylated, BLI) (peptide)
chain: NISQKSDEEDFVKVEDLPLKLTIY
modifications: also: biotin, position not given here
For B9, the Kd [12] was 4.2 µM, the Kd [13] was 3.8 µM and the Kd [14] was 2 µM. It also gave a Kd [9] of 160 µM.

B10: FIP200 LIR peptide (biotinylated, BLI) (peptide)
chain: PDSIDAHTFDFETIPHPNIEQTIH
modifications: also: biotin, position not given here
With B10 the Kd [12] was 12.5 µM, the Kd [15] was 70.3 µM and the Kd [16] was 8.5 µM. It also gave a Kd [14] of 3.8 µM.

B11: ULK1 LIR peptide (biotinylated, BLI) (peptide)
chain: SKDSSCDTDDFVMVPAQFPGDLVA
modifications: also: biotin, position not given here
In the case of B11, the Kd [12] is reported as 0.39 µM, the Kd [7] is reported as 5.6 µM and the Kd [13] is reported as 0.15 µM. It also gave a Kd [17] of 0.26 µM, a Kd [8] of 5.6 µM and a Kd [18] of 0.36 µM. It also gave a Kd [15] of 3.2 µM, a Kd [19] of 2.9 µM and a Kd [16] of 0.13 µM. For the same binder, the Kd [20] was 0.42 µM, the Kd (LC3C (recombinant, BLI) [6]) was 2.5 µM and the Kd (LC3A (recombinant, BLI) [21]) was 5.9 µM. It also gave a Kd [11] of 0.53 µM.

B12: PCM1 FDII LIR peptide (BLI) (peptide)
chain: NISQKSDEEDFDIIEDLPLKLTIY
modifications: also: biotin, position not given here
Binder B12 has a Kd [1] of 1.4 µM, a Kd (LC3C (recombinant, BLI) [2]) of 2.4 µM and a Kd (LC3B (recombinant, BLI) [5]) of 21.8 µM. The Kd (LC3A (recombinant, BLI) [3]) was 4.6 µM, the Kd (-L1 (recombinant, BLI)) was 0.91 µM and the Kd [4] was 17 µM.

For B13, the Kd [22] was 10.8 µM.

Reference: article PMC6499816 (2019)
